This note sets out measurements from US12551542B2, “Polymeric nanoparticles that target liver sinusoidal endothelial cells to induce antigen-specific immune tolerance” (The Regents of the University of California, priority 2019, dated 2026).

No end group written: not given here.

One data set has as its system LSECs. Put plainly: NP-associated FITC-OVA uptake, flow cytometry. Type of data set: cell-based, mouse. On the procedure: Following OVA-FITC labeling, the antigen was encapsulated in NPs as described in Example 1 Materials and Methods. LSECs and KUP5 cells were incubated with FITC-OVA or NP^FITC-OVA for the indicated time periods. After being washed in PBS, the % FITC-OVA^+ cells and the cellular mean fluorescence intensity (MFI) were analyzed in a BD LSRII (IMED) analytic flow cytometer by Flowjo® software. Panels (A, B): Kinetics of NP-mediated antigen uptake in LSECs and KUP5 cells, respectively. Panels (C, D): Histograms depicting the % and MFI of antigen-positive LSECs. Data are expressed as the mean±SEM (n=6); *p<0.05; **p<0.01; ***[…] (one-way ANOVA followed by Tukey's test).
To quantitatively evaluate antigen uptake into cells, OVA was labeled with FITC as previously described. Following the incorporation of FITC-OVA into NPs, LSECs and KUP5 cells were incubated with FITC-OVA or the labeled particles for 24 h. Cells were collected, washed with PBS, and analyzed in a BD LSRII (IMED) analytic flow cytometer. Flowjo software (Ashland, OR) was used to quantify the percentage and mean fluorescence intensity of the FITC-OVA+-labeled cells.
For orientation: A flow cytometer gives signals particle by particle.

In data set [1] the target is stabilin-2 scavenger receptor on liver sinusoidal endothelial cells (LSECs) (mouse, UniProt Q8R4U0 29-2559). Put plainly: cell-based or functional assay.
In data set [2] the target is stabilin-1 scavenger receptor on liver sinusoidal endothelial cells (LSECs) (mouse, UniProt Q8R4Y4 26-2571). The data set can be described thus: cell-based or functional assay.
Another data set has as its system mice. The data set can be described thus: Biodistribution of DyLight680-OVA NPs after IV injection, ex vivo IVIS imaging. Conditions: 25 μg OVA in 500 μg NPs per animal, 24 h. More on the design: species or system mouse. From the text: Panel (B): Confocal microscopy to show the intrahepatic distribution of free or encapsulated labeled OVA. […] The red and green fluorescence colors represent DyLight680-labeled OVA and isolectin B4 stained LSECs, respectively. Scale bars correspond to 50 μm. Data are expressed as the mean±SEM (n=6); *p<0.05; **p<0.01; ***[…] (one-way ANOVA followed by Tukey's test).
FIG. 17A schematically illustrates two main strategies for inducing immune tolerance. Strategy 1 depicts a liver-targeting nanoparticle for allergen delivery to LSEC in the liver, where allergen processing and presentation to naïve T-cells induce antigen-specific Foxp3^+ Tregs, which are recruited to the site of allergic inflammation in the lung. […] FIG. 17B schematically illustrates the PLGA nanoparticle synthesis process, including carrier loading with cargo (allergen, epitopes, pharmaceutical agents), by a w/o/w double emulsion method combined with solvent removal. […] The red and green fluorescence colors represent Dylight680-labeled OVA and isolectin B4 stained LSECs, respectively. […]
The near-infrared fluorescent dye, DyLight680 (ex=692, em=712), was used to label OVA, which was subsequently encapsulated in the NPs. […] The data were analyzed using Living Image software (PerkinElmer, version 4.5) and were expressed as the fluorescence intensity in the region of interest. […]

Chain of stabilin-1 scavenger receptor on liver sinusoidal endothelial cells (LSECs) (Q8R4Y4 26-2571): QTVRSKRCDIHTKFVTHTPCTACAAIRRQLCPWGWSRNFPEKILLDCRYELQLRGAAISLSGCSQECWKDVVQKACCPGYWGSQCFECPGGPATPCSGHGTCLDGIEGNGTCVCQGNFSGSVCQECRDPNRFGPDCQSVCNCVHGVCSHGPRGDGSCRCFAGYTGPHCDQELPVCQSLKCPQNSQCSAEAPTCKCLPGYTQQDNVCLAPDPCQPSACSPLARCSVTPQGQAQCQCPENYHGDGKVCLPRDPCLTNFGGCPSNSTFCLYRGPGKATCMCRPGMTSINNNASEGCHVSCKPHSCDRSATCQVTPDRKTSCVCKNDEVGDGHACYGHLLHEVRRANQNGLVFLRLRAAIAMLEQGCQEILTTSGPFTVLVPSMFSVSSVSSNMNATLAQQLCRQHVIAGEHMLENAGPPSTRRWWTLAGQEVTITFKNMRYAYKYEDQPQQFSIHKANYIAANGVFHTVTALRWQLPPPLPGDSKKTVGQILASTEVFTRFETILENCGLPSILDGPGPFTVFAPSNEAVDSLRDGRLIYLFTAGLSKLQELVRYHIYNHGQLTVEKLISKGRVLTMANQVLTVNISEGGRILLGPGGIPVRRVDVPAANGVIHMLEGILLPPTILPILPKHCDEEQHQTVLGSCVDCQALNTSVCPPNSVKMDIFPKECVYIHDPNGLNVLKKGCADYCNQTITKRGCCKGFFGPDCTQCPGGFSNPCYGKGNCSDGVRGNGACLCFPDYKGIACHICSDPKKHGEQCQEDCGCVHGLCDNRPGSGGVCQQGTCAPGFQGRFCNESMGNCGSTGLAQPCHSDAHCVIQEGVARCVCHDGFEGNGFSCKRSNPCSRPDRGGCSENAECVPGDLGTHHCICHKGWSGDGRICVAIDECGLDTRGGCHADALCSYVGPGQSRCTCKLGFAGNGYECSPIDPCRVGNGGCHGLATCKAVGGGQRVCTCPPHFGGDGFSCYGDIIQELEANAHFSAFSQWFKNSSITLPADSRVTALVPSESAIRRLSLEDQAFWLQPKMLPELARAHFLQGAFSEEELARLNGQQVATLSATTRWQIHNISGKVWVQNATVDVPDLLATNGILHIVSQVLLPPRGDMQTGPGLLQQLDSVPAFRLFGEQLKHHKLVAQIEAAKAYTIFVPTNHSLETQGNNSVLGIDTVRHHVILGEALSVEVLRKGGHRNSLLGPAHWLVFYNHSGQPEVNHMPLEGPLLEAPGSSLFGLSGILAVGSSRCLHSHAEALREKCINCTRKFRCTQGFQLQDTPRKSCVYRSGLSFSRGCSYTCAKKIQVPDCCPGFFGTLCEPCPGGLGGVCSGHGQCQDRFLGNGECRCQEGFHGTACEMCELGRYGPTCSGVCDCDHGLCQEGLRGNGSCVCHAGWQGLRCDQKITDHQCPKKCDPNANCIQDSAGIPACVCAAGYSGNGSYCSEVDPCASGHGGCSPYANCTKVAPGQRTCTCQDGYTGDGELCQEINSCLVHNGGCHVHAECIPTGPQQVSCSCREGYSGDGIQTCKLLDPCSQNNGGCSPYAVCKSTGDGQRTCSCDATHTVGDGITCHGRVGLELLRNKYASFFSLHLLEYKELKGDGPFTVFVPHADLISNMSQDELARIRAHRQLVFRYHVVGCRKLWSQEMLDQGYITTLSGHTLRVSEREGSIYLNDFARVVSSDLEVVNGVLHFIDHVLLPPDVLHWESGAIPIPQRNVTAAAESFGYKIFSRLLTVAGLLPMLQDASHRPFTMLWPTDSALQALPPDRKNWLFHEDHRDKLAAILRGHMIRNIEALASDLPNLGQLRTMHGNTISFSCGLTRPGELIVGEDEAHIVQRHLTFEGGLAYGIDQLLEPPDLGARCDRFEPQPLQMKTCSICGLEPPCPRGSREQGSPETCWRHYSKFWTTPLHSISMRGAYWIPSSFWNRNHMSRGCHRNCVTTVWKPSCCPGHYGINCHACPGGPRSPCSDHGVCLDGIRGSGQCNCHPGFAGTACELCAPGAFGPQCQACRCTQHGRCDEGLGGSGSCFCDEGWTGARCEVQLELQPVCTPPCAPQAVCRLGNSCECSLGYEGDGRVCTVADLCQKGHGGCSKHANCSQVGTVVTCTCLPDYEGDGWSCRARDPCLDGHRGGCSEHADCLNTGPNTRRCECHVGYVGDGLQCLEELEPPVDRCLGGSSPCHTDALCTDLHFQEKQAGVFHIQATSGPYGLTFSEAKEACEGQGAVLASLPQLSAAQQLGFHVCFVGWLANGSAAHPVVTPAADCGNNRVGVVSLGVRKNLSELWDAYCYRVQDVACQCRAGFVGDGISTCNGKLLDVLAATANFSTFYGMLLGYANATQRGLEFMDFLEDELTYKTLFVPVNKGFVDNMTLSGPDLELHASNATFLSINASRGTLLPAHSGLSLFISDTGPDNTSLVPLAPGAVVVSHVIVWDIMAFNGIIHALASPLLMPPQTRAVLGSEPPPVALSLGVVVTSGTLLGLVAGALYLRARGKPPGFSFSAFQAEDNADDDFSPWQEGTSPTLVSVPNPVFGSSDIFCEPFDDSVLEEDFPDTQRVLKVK
Chain of stabilin-2 scavenger receptor on liver sinusoidal endothelial cells (LSECs) (Q8R4U0 29-2559): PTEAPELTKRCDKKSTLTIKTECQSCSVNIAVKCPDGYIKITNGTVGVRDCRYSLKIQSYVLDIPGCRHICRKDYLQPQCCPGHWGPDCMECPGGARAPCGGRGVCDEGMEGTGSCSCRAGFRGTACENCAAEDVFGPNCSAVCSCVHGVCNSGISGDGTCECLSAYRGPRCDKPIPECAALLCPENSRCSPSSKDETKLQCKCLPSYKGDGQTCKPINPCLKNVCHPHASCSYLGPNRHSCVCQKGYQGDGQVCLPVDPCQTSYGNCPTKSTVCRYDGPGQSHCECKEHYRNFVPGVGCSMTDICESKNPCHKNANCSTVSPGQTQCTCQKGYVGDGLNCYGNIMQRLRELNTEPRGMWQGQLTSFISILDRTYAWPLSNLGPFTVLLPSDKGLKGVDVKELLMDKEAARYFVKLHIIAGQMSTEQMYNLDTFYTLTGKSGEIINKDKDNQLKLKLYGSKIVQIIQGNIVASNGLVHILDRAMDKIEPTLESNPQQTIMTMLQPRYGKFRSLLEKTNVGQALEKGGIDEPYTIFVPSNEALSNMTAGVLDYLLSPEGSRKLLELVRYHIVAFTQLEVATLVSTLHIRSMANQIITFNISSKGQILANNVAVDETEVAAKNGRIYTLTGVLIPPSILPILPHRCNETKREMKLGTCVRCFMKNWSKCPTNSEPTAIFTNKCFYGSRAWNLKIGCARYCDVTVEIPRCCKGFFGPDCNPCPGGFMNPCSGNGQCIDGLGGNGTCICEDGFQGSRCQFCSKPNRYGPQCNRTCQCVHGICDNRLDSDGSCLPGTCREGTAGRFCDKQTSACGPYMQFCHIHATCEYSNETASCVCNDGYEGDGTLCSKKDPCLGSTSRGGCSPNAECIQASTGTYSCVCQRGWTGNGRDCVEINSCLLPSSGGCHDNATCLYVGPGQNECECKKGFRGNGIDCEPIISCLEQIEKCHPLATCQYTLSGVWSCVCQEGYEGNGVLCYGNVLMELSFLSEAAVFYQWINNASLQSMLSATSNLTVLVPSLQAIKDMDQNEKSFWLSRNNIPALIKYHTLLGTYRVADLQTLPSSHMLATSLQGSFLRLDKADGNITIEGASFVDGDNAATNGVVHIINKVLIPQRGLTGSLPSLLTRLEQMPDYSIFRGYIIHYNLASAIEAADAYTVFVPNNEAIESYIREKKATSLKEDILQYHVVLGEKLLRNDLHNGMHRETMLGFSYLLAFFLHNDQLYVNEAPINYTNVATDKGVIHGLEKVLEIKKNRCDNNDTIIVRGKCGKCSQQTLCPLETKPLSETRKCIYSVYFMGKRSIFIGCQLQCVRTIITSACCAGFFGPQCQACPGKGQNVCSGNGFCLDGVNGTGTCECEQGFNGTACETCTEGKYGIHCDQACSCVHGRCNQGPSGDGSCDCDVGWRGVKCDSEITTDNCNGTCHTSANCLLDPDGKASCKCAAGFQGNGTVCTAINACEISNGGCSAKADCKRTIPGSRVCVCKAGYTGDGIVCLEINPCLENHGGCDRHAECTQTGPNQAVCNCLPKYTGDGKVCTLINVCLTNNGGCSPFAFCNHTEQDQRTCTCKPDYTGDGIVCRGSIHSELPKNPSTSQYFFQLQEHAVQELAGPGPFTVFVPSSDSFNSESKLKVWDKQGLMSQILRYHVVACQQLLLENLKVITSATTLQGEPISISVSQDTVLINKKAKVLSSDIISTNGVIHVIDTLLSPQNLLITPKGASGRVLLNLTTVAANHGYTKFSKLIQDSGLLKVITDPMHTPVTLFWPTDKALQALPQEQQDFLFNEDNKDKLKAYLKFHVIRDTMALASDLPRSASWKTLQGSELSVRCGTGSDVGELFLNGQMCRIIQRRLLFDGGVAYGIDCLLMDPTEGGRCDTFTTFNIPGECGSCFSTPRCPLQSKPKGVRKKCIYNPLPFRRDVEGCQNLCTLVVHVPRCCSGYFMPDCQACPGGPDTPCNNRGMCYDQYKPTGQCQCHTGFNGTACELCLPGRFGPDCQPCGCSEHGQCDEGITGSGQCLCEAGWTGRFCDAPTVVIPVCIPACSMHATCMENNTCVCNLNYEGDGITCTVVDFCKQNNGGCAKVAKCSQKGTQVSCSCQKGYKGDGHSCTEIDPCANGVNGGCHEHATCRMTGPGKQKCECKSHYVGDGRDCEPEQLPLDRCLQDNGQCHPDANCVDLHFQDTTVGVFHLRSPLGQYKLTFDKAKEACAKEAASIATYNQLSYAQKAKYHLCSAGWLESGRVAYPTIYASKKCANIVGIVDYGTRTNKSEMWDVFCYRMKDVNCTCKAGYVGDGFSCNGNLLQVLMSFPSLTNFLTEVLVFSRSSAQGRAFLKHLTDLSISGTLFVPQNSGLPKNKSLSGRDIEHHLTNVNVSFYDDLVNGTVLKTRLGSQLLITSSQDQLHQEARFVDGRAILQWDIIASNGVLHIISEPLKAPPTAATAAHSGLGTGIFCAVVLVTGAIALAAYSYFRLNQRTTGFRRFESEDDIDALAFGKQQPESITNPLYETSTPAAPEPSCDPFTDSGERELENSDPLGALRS

Regarding “FITC-OVA: fluorescein isothiocyanate (FITC)-labeled OVA, not encapsulated”, the “NP-mediated FITC-OVA uptake (OVA fluorescence intensity)” value in the data set with LSECs is given as “No significant uptake”.

B1: ApoB peptide (ApoBP), RLYRKRGLK, containing a GGC tag, conjugated to the surface of OVA-encapsulating PLGA nanoparticles (peptide)
peptide: RLYRKRGLK
modifications: also: GGC tag at one end, orientation unclear, tag Cys thioether-linked to maleimide (NAEM) on PLGA nanoparticle
For the molecule B1, the “percentage of OVA-positive LSECs (flow cytometry, uptake of nanoparticle-encapsulated FITC-OVA)” value in data set [1] and in data set [2] was roughly 2 fold each time.

B2: non-encapsulated fluorescent OVA: DyLight680-labeled ovalbumin injected free, not encapsulated (protein, UniProt P01012 2-386, looked up)
Ovalbumin: GSIGAASMEFCFDVFKELKVHHANENIFYCPIAIMSALAMVYLGAKDSTRTQINKVVRFDKLPGFGDSIEAQCGTSVNVHSSLRDILNQITKPNDVYSFSLASRLYAEERYPILPEYLQCVKELYRGGLEPINFQTAADQARELINSWVESQTNGIIRNVLQPSSVDSQTAMVLVNAIVFKGLWEKAFKDEDTQAMPFRVTEQESKPVQMMYQIGLFRVASMASEKMKILELPFASGTMSMLVLLPDEVSGLEQLESIINFEKLTEWTSSNVMEERKIKVYLPRMKMEEKYNLTSVLMAMGITDVFSSSANLSGISSAESLKISQAVHAAHAEINEAGREVVGSAEAGVDAASVSEEFRADHPFLFCIKHIATNAVLFFGRCVSP
modifications: DyLight680 label
Consider B2, for which the “organ distribution of labeled OVA (IVIS)” value in the data set on mice is reported as “kidney”.
